From PMC7613929 (Nature microbiology, 2022)

B1: E. coli FtsN cytoplasmic tail peptide, residues 1-32 (EcFtsN^1-32) [E. coli] / E. coli FtsA (EcFtsA), full length [E. coli] (parent complex)
chain 1: MAQRDYVRRSQPAPSRRKKSTSRKKQRNLPAV
chain 2: MIKATDRKLVVGLEIGTAKVAALVGEVLPDGMVNIIGVGSCPSRGMDKGGVNDLESVVKCVQRAIDQAELMADCQISSVYLALSGKHISCQNEIGMVPISEEEVTQEDVENVVHTAKSVRVRDEHRVLHVIPQEYAIDYQEGIKNPVGLSGVRMQAKVHLITCHNDMAKNIVKAVERCGLKVDQLIFAGLASSYSVLTEDERELGVCVVDIGGGTMDIAVYTGGALRHTKVIPYAGNVVTSDIAYAFGTPPSDAEAIKVRHGCALGSIVGKDESVEVPSVGGRPPRSLQRQTLAEVIEPRYTELLNLVNEEILQLQEKLRQQGVKHHLAAGIVLTGGAAQIEGLAACAQRVFHTQVRIGAPLNITGLTDYAQEPYYSTAVGLLHYGKESHLNGEAEVEKRVTASVGSWIKRLNSWLRKEF

Variants of: B1
Test: SPR; FtsA immobilised on CM5 chip via amide coupling; peptide 1:2 dilution series from 20 μM; maximum response fixed during fitting (asterisk)

Variant | Kd [µM]
chain 1 MAQRDYVRRSQPAPSRRKKSTSASAQRNLPAV [chain 1 R23A, chain 1 K24S, chain 1 K25A] | ~80.6
chain 1 MAQRDYVRRSQPAPSAASASTSRKKQRNLPAV [chain 1 R16A, chain 1 R17A, chain 1 K18S, chain 1 K19A] | ~166
